Results: article PMC8874411, “Biochemical and Structural Insights into the Winged Helix Domain of P150, the Largest Subunit of the Chromatin Assembly Factor 1”

How the values were obtained:
Conditions in all cases: protein: recombinant; tags: C-terminal His6 (pETM13); blunt
[1] = molecular target: T1, P150 721-860 (WHD) (Homo sapiens, UniProt Q13111 721-860); test: EMSA; 1 uM DNA, Sybr Gold; fit with Hill slope; EMSA: 20 mM Tris-HCl, 100 mM NaCl, 1 mM DTT, pH 7.5, 45 min on ice; 6% PAGE in 0.5X TBE on ice
[2] = molecular target: P150 575-860 (ED + WHD) (Homo sapiens, UniProt Q13111 575-860); test: EMSA; 2 uM DNA, 0-25 molar ratio; no complex detected; EMSA: 20 mM Tris-HCl, 100 mM NaCl, 1 mM DTT, pH 7.5, 45 min on ice; 6% PAGE in 0.5X TBE on ice
[3] = molecular target: T1, P150 721-860 (WHD); test: EMSA; about 21 uM DNA; EMSA: 20 mM Tris-HCl, 100 mM NaCl, 1 mM DTT, pH 7.5, 45 min on ice; 6% PAGE in 0.5X TBE on ice
[4] = molecular target: T1, P150 721-860 (WHD); test: EMSA; 21 uM DNA, 0-15 molar ratio, EtBr; EMSA: 20 mM Tris-HCl, 100 mM NaCl, 1 mM DTT, pH 7.5, 45 min on ice; 6% PAGE in 0.5X TBE on ice

T1 sequence (Q13111 721-860): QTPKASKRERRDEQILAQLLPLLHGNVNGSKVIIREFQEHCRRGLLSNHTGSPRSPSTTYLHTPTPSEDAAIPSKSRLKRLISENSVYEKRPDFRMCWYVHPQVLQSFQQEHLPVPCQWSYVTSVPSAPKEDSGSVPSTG
Sequence of P150 575-860 (ED + WHD) (Q13111 575-860): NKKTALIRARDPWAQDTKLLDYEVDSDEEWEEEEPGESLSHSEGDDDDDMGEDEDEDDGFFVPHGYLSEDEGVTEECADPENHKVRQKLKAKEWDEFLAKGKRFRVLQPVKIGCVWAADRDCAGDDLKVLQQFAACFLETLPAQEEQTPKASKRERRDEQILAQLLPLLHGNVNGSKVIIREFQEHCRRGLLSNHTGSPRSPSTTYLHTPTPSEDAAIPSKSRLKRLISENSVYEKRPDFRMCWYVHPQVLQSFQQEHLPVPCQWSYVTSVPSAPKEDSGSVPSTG

B1: 58 bp dsDNA (dsDNA)
DNA 1: ATACATTTTATGACTGGAAACTTTTTTGTACAACACTCCAATAAACATTTTGATTTTA
DNA 2: TAAAATCAAAATGTTTATTGGAGTGTTGTACAAAAAAGTTTCCAGTCATAAAATGTAT
[1]
  Kd: 10.4 ± 0.5 µM
[2]
  binding result: no binding

B2: 16 bp GC rich dsDNA (dsDNA)
DNA 1: ATCGCCCGCGCACGCA
DNA 2: TGCGTGCGCGGGCGAT
[3]
  binding result: binds

B3: 16 bp AT rich dsDNA (dsDNA)
DNA 1: ATAATCGATATTCGTT
DNA 2: AACGAATATCGATTAT
[3]
  binding result: binds

B4: 16 bp dsDNA (dsDNA)
DNA 1: TGCTACCGATCGATAC
DNA 2: GTATCGATCGGTAGCA
[4]
  binding result: binds
